Measured values taken from PMC8009048 (Science (New York, N.Y.), 2017).

Molecular target: HOXB13 DNA binding domain fragment (residues 209-283) (human, UniProt Q92826 209-283)
Assay: crystal structure

Chain of HOXB13 DNA binding domain fragment (residues 209-283) (Q92826 209-283): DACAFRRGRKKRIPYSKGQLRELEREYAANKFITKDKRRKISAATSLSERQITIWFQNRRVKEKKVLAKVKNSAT

- binding result: binds
B1: MEIS1 DNA binding domain fragment (residues 279-333) (domain or fragment, human, UniProt O00470 279-333, looked up)
chain: FPKVATNIMRAWLFQHLTHPYPSEEQKKQLAQDTGLTILQVNNWFINARRRIVQP
